Results reported in publication PMC9482650, “Quantitative fragmentomics allow affinity mapping of interactomes” (Nature Communications, 2022).
Numbering of substitutions follows the chain as printed.

The binders below were run against T1, PTPN13_1, Q12923 (assay: holdup assay). Details: plain residues with an end cap or a label only (N-terminal biotin on a linker: ado-ado).
T1 sequence (Q12923 1088-1188, limits assumed, looked up): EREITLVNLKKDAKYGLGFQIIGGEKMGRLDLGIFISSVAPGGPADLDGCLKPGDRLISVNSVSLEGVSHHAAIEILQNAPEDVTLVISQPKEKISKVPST
Set-up: key: below the threshold = too weak to quantify, mostly under pKd 3.1 to 4

pKd	Binder
below the threshold	VYEVPVETKF [SLC26A3, P40879]
below the threshold	PAALPESTHM [SLC9A3, P48764]

Each binder was assayed against NHERF4_4, Q86UT5 (assay: holdup assay). Details: plain residues with an end cap or a label only (N-terminal biotin on a linker: ado-ado).
Sequence of NHERF4_4, Q86UT5 (Q86UT5 464-550): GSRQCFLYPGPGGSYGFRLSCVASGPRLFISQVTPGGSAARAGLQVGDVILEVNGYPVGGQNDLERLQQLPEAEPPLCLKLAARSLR
Set-up: key: below the threshold = too weak to quantify, mostly under pKd 3.1 to 4

pKd	Binder
below the threshold	VYEVPVETKF [SLC26A3, P40879]
below the threshold	PAALPESTHM [SLC9A3, P48764]

The binders below were run against NHERF2_2, Q15599 (assay: holdup assay). Details: plain residues with an end cap or a label only (N-terminal biotin on a linker: ado-ado).
Sequence of NHERF2_2, Q15599 (Q15599 142-238): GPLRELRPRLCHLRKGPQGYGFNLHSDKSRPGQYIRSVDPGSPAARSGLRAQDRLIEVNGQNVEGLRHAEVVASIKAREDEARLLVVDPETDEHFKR
Set-up: key: below the threshold = too weak to quantify, mostly under pKd 3.1 to 4

pKd	Binder
5.04	VYEVPVETKF [SLC26A3, P40879]
4.94	PAALPESTHM [SLC9A3, P48764]

These binders were tested against GOPC, Q9HD26 (assay: holdup assay). Details: plain residues with an end cap or a label only (N-terminal biotin on a linker: ado-ado).
Set-up: key: below the threshold = too weak to quantify, mostly under pKd 3.1 to 4

pKd	Binder
below the threshold	VYEVPVETKF [SLC26A3, P40879]
below the threshold	PAALPESTHM [SLC9A3, P48764]

Each binder was assayed against T2, LIN7A, O14910 (assay: holdup assay). Details: plain residues with an end cap or a label only (N-terminal biotin on a linker: ado-ado).
T2 sequence (O14910 103-200, limits assumed, looked up): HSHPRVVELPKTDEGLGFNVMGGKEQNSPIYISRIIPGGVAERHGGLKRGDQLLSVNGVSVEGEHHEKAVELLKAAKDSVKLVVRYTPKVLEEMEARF
Set-up: key: below the threshold = too weak to quantify, mostly under pKd 3.1 to 4

pKd	Binder
below the threshold	VYEVPVETKF [SLC26A3, P40879]
below the threshold	PAALPESTHM [SLC9A3, P48764]

These binders were tested against ARHGEF12, Q9NZN5-2 (assay: holdup assay). Details: plain residues with an end cap or a label only (N-terminal biotin on a linker: ado-ado).
Sequence of ARHGEF12, Q9NZN5-2 (Q9NZN5 other isoform, or with tags, fused parts or gaps): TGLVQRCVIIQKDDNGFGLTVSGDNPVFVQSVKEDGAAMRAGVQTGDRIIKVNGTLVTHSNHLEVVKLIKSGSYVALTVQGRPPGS
Set-up: key: below the threshold = too weak to quantify, mostly under pKd 3.1 to 4

pKd	Binder
below the threshold	VYEVPVETKF [SLC26A3, P40879]
below the threshold	PAALPESTHM [SLC9A3, P48764]

Each binder was assayed against Inadl_5, Q8NI35 (assay: holdup assay). Details: plain residues with an end cap or a label only (N-terminal biotin on a linker: ado-ado).
Sequence of Inadl_5, Q8NI35 (Q8NI35 673-780): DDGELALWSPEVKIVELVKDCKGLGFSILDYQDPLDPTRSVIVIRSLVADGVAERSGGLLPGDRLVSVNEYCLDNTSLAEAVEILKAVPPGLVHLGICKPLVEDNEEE
Set-up: key: below the threshold = too weak to quantify, mostly under pKd 3.1 to 4

pKd	Binder
below the threshold	VYEVPVETKF [SLC26A3, P40879]
below the threshold	PAALPESTHM [SLC9A3, P48764]

These binders were tested against Inadl_10, Q8NI35 (assay: holdup assay). Details: plain residues with an end cap or a label only (N-terminal biotin on a linker: ado-ado).
Sequence of Inadl_10, Q8NI35 (Q8NI35 1673-1763): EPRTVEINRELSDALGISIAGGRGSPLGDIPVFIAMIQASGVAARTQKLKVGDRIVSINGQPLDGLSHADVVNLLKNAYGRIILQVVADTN
Set-up: key: below the threshold = too weak to quantify, mostly under pKd 3.1 to 4

pKd	Binder
below the threshold	VYEVPVETKF [SLC26A3, P40879]
below the threshold	PAALPESTHM [SLC9A3, P48764]

These binders were tested against Inadl_9, Q8NI35 (assay: holdup assay). Details: plain residues with an end cap or a label only (N-terminal biotin on a linker: ado-ado).
Sequence of Inadl_9, Q8NI35 (Q8NI35 1530-1615): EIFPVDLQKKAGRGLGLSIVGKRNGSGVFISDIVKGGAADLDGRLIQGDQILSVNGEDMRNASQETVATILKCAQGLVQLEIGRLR
Set-up: key: below the threshold = too weak to quantify, mostly under pKd 3.1 to 4

pKd	Binder
below the threshold	VYEVPVETKF [SLC26A3, P40879]
below the threshold	PAALPESTHM [SLC9A3, P48764]

These binders were tested against Inadl_1, Q8NI35 (assay: holdup assay). Details: plain residues with an end cap or a label only (N-terminal biotin on a linker: ado-ado).
Sequence of Inadl_1, Q8NI35 (Q8NI35 113-229): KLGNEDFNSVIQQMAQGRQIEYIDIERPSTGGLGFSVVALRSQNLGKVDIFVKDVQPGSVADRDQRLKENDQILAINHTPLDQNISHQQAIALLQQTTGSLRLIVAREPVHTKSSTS
Set-up: key: below the threshold = too weak to quantify, mostly under pKd 3.1 to 4

pKd	Binder
below the threshold	VYEVPVETKF [SLC26A3, P40879]
below the threshold	PAALPESTHM [SLC9A3, P48764]

What follows are binders tested against T3, MPDZ_12, O75970 (assay: holdup assay). Details: plain residues with an end cap or a label only (N-terminal biotin on a linker: ado-ado).
T3 sequence (O75970 1857-1958, limits assumed, looked up): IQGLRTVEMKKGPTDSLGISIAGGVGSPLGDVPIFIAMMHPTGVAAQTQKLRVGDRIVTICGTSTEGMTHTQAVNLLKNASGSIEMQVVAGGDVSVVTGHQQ
Set-up: key: below the threshold = too weak to quantify, mostly under pKd 3.1 to 4

pKd	Binder
below the threshold	VYEVPVETKF [SLC26A3, P40879]
below the threshold	PAALPESTHM [SLC9A3, P48764]

The binders below were run against DLG1_2, Q12959 (assay: holdup assay). Details: plain residues with an end cap or a label only (N-terminal biotin on a linker: ado-ado).
Sequence of DLG1_2, Q12959 (Q12959 314-412): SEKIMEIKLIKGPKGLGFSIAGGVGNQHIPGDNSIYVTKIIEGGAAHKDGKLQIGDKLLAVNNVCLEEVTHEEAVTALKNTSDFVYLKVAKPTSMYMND
Set-up: key: below the threshold = too weak to quantify, mostly under pKd 3.1 to 4

pKd	Binder
3.59	VYEVPVETKF [SLC26A3, P40879]
below the threshold	PAALPESTHM [SLC9A3, P48764]

These binders were tested against T4, DVL3, Q92997 (assay: holdup assay). Details: plain residues with an end cap or a label only (N-terminal biotin on a linker: ado-ado).
T4 sequence (Q92997 244-331, limits assumed, looked up): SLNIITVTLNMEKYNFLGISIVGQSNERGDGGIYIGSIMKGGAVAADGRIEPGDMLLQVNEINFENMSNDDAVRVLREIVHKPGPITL
Set-up: key: below the threshold = too weak to quantify, mostly under pKd 3.1 to 4

pKd	Binder
below the threshold	VYEVPVETKF [SLC26A3, P40879]
below the threshold	PAALPESTHM [SLC9A3, P48764]

What follows are binders tested against MAGI2_2, Q86UL8 (assay: holdup assay). Details: plain residues with an end cap or a label only (N-terminal biotin on a linker: ado-ado).
Sequence of MAGI2_2, Q86UL8 (Q86UL8 410-522): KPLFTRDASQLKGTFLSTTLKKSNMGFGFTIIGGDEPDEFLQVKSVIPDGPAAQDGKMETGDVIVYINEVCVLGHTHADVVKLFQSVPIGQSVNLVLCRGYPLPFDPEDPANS
Set-up: key: below the threshold = too weak to quantify, mostly under pKd 3.1 to 4

pKd	Binder
below the threshold	VYEVPVETKF [SLC26A3, P40879]
below the threshold	PAALPESTHM [SLC9A3, P48764]

Each binder was assayed against T5, DLG3_3, Q92796 (assay: holdup assay). Details: plain residues with an end cap or a label only (N-terminal biotin on a linker: ado-ado).
T5 sequence (Q92796 374-475, limits assumed, looked up): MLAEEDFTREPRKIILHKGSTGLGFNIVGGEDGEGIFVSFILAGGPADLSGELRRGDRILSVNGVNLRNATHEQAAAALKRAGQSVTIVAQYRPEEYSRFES
Set-up: key: below the threshold = too weak to quantify, mostly under pKd 3.1 to 4

pKd	Binder
below the threshold	VYEVPVETKF [SLC26A3, P40879]
below the threshold	PAALPESTHM [SLC9A3, P48764]

Each binder was assayed against T6, PCLO, Q9Y6V0 (assay: holdup assay). Details: plain residues with an end cap or a label only (N-terminal biotin on a linker: ado-ado).
T6 sequence (Q9Y6V0 4491-4600, limits assumed, looked up): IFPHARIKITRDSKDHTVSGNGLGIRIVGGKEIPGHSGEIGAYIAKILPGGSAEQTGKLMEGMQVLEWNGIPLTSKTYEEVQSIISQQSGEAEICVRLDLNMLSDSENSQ
Set-up: key: below the threshold = too weak to quantify, mostly under pKd 3.1 to 4

pKd	Binder
below the threshold	VYEVPVETKF [SLC26A3, P40879]
below the threshold	PAALPESTHM [SLC9A3, P48764]

Each binder was assayed against GRASP, Q7Z6J2 (assay: holdup assay). Details: plain residues with an end cap or a label only (N-terminal biotin on a linker: ado-ado).
Sequence of GRASP, Q7Z6J2 (Q7Z6J2 96-193): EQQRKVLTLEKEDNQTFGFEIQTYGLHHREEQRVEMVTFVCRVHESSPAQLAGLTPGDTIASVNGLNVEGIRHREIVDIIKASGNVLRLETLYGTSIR
Set-up: key: below the threshold = too weak to quantify, mostly under pKd 3.1 to 4

pKd	Binder
3.81	VYEVPVETKF [SLC26A3, P40879]
below the threshold	PAALPESTHM [SLC9A3, P48764]

Each binder was assayed against LNX1_1, Q8TBB1 (assay: holdup assay). Details: plain residues with an end cap or a label only (N-terminal biotin on a linker: ado-ado).
Sequence of LNX1_1, Q8TBB1 (Q8TBB1 261-371): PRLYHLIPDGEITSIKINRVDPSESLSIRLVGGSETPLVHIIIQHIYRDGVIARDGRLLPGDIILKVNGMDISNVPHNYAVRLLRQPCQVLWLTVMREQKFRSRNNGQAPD
Set-up: key: below the threshold = too weak to quantify, mostly under pKd 3.1 to 4

pKd	Binder
3.85	VYEVPVETKF [SLC26A3, P40879]
below the threshold	PAALPESTHM [SLC9A3, P48764]

The binders below were run against T7, TX1BP3, O14907 (assay: holdup assay). Details: plain residues with an end cap or a label only (N-terminal biotin on a linker: ado-ado).
T7 sequence (O14907 10-122, limits assumed, looked up): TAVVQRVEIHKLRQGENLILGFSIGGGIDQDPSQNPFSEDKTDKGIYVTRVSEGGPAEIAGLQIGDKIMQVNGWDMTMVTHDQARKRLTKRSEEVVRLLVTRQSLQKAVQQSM
Set-up: key: below the threshold = too weak to quantify, mostly under pKd 3.1 to 4

pKd	Binder
below the threshold	VYEVPVETKF [SLC26A3, P40879]
below the threshold	PAALPESTHM [SLC9A3, P48764]

The binders below were run against MAGI2_6, Q86UL8 (assay: holdup assay). Details: plain residues with an end cap or a label only (N-terminal biotin on a linker: ado-ado).
Sequence of MAGI2_6, Q86UL8 (Q86UL8 1141-1229): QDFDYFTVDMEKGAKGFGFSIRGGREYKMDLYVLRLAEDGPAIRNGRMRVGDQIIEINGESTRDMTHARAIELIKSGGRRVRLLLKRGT
Set-up: key: below the threshold = too weak to quantify, mostly under pKd 3.1 to 4

pKd	Binder
4	VYEVPVETKF [SLC26A3, P40879]
below the threshold	PAALPESTHM [SLC9A3, P48764]

Each binder was assayed against T8, SHANK1, Q9Y566 (assay: holdup assay). Details: plain residues with an end cap or a label only (N-terminal biotin on a linker: ado-ado).
T8 sequence (Q9Y566 658-767, limits assumed, looked up): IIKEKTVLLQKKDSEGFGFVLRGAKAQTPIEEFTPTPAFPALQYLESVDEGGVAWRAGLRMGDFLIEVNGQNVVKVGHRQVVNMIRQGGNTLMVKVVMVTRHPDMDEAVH
Set-up: key: below the threshold = too weak to quantify, mostly under pKd 3.1 to 4

pKd	Binder
4.63	VYEVPVETKF [SLC26A3, P40879]
4.78	PAALPESTHM [SLC9A3, P48764]

These binders were tested against GRID2IP_1, A4D2P6 (assay: holdup assay). Details: plain residues with an end cap or a label only (N-terminal biotin on a linker: ado-ado).
Sequence of GRID2IP_1, A4D2P6 (A4D2P6 1-87): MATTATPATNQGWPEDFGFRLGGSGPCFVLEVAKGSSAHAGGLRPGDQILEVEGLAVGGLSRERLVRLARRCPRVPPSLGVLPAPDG
Set-up: key: below the threshold = too weak to quantify, mostly under pKd 3.1 to 4

pKd	Binder
below the threshold	VYEVPVETKF [SLC26A3, P40879]
below the threshold	PAALPESTHM [SLC9A3, P48764]

These binders were tested against GORASP2, Q9H8Y8 (assay: holdup assay). Details: plain residues with an end cap or a label only (N-terminal biotin on a linker: ado-ado).
Set-up: key: below the threshold = too weak to quantify, mostly under pKd 3.1 to 4

pKd	Binder
below the threshold	VYEVPVETKF [SLC26A3, P40879]
below the threshold	PAALPESTHM [SLC9A3, P48764]

The binders below were run against MAST2, Q6P0Q8 (assay: holdup assay). Details: plain residues with an end cap or a label only (N-terminal biotin on a linker: ado-ado).
Sequence of MAST2, Q6P0Q8 (Q6P0Q8 1099-1202): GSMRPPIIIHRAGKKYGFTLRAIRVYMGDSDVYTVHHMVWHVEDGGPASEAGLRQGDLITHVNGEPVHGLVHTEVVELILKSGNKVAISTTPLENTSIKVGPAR
Set-up: key: below the threshold = too weak to quantify, mostly under pKd 3.1 to 4

pKd	Binder
5.48	VYEVPVETKF [SLC26A3, P40879]
5.35	PAALPESTHM [SLC9A3, P48764]

The binders below were run against T9, DLG3_1, Q92796 (assay: holdup assay). Details: plain residues with an end cap or a label only (N-terminal biotin on a linker: ado-ado).
T9 sequence (Q92796 125-227, limits assumed, looked up): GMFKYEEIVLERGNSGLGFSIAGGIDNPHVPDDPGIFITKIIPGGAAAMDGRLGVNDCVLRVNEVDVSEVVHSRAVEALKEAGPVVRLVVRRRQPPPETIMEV
Set-up: key: below the threshold = too weak to quantify, mostly under pKd 3.1 to 4

pKd	Binder
below the threshold	VYEVPVETKF [SLC26A3, P40879]
below the threshold	PAALPESTHM [SLC9A3, P48764]

Each binder was assayed against FRMPD2_1, Q68DX3 (assay: holdup assay). Details: plain residues with an end cap or a label only (N-terminal biotin on a linker: ado-ado).
Sequence of FRMPD2_1, Q68DX3 (Q68DX3 770-861): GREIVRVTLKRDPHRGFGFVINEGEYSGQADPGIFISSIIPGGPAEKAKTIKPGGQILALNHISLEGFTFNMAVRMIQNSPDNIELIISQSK
Set-up: key: below the threshold = too weak to quantify, mostly under pKd 3.1 to 4

pKd	Binder
below the threshold	VYEVPVETKF [SLC26A3, P40879]
below the threshold	PAALPESTHM [SLC9A3, P48764]

Each binder was assayed against DLG5_1, Q8TDM6 (assay: holdup assay). Details: plain residues with an end cap or a label only (N-terminal biotin on a linker: ado-ado).
Sequence of DLG5_1, Q8TDM6 (Q8TDM6 617-713): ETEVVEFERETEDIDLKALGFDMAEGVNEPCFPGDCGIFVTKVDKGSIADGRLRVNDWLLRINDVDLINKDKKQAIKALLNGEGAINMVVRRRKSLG
Set-up: key: below the threshold = too weak to quantify, mostly under pKd 3.1 to 4

pKd	Binder
below the threshold	VYEVPVETKF [SLC26A3, P40879]
below the threshold	PAALPESTHM [SLC9A3, P48764]

Each binder was assayed against T10, LIN7B, Q9HAP6 (assay: holdup assay). Details: plain residues with an end cap or a label only (N-terminal biotin on a linker: ado-ado).
T10 sequence (Q9HAP6 88-185, limits assumed, looked up): T2 sequence (O14910 103-200, limits assumed, looked up) with S2A, V20I, I35V, E42D, H65Q, K77Q, D78G, K89R
Set-up: key: below the threshold = too weak to quantify, mostly under pKd 3.1 to 4

pKd	Binder
4.21	VYEVPVETKF [SLC26A3, P40879]
below the threshold	PAALPESTHM [SLC9A3, P48764]
